Results: US20260137802A1 (CRISPR THERAPEUTICS, published 2026)

B1: P-0010 (Fc fusion)
chain: QVQLVESGGGLVQAGGSLRLSCVASGRTFSSYAMGWFRQGPGKEREFAAAILSNGLTTYYADSVKGRFTISRDNAKDTVYLQMNSLKPEDTANYYCAAAFTPEFRDGGIWDDASVDYWGQGTQVTVSS
notes: Any second Fc chain without VHH is not described in the text; also called monovalent form of P10; not shown: Fc fragment
B2: P-0027 (Fc fusion)
chain: EVQLVESGGGLVRAGGSLRLSCAASGRTTFSTYWLGWFRQAPGKNREFVAAISWSAGMAYYQDSKGRFTISRDNTKNTAYLQMNSLQPEDTAVYYCAAGRFHPIRVDTALYWAQGTQVTVSS
notes: Any second Fc chain without VHH is not described in the text; also called monovalent form of P27; not shown: Fc fragment
B3: P-0032 (Fc fusion)
chain: QVQLVESGGGLVQAGDSLRLSCAASGRTFSSYAMGWFRQAPGKEREFVASITSSGLVAYYGDSVEARFTISRDNAKNTVYLQMDSLKPEDTAVYYCAARQYVGSGSYYLKKEGGYEYWGPGTQVTVSS
notes: Any second Fc chain without VHH is not described in the text; also called monovalent form of P32; not shown: Fc fragment
B4: P-0029 (Fc fusion)
chain: QVHLVESGGGLVQAGGSLGLSCAASGHTFSNYAMGWFRQAPGKEREFVAAISWSGGSTLYADSVKGRFTISRDNGENTVYLQMNSLKPEDTAVYYCALDSTGVYGTGYVSSRKGRYEYWGQGTLVTVSS
notes: Any second Fc chain without VHH is not described in the text; also called monovalent form of P29; not shown: Fc fragment
B5: P-0012 (Fc fusion)
chain: QVQLVESGGGLVQAGGSLRLSCTASGDTFSSYSMGWFRQGPGKEREFVGGIRWSGGTTYYADSVKGRFTISRDNAKNTVYLQMNSLKREDTAVYYCAAVRRRWLIWQEEEYDYWGQGTLVTVSS
notes: Any second Fc chain without VHH is not described in the text; also called monovalent form of P12; not shown: Fc fragment
B6: P-0053 (Fc fusion)
chain: B1 chain
notes: also called P53; bivalent form of P10; not shown: Fc fragment
B7: P-0072 (Fc fusion)
chain: EVQLVESGGGLVQAGGSLRLSCAASGRTSGSYVMGWFRQAPGKEREFVAAISWSAGMTYYADSVKGRFTISRDNAKNTVYLQMNSLKPEDTAVYYCAADQRGVPAYYSDYALYDYWGQGTQVTVSS
notes: also called P72; bivalent form of P38; not shown: Fc fragment
B8: P-0060 (Fc fusion)
chain: B2 chain
notes: also called P60; bivalent form of P27; not shown: Fc fragment
B9: P-0058 (Fc fusion)
chain: QVQLVESGGGLVQAGDSLRLSCAVSGRTLSNYFMAWLRQAPGKEREFVAAIHWSLGSTYYQDPVKGRFTISRDKAKNTVYLQMNTLKPEDTATYICAAGQHLSGLGGSAWSIEGDYWGQGTQVTVSS
notes: also called P58; bivalent form of P37; not shown: Fc fragment
B10: P-0057 (Fc fusion)
chain: B3 chain
notes: the alignment instead labels 'P35/P57' and 'P32/P56'; also called P57; not shown: Fc fragment
B11: P-0056 (Fc fusion)
chain: QVQLVESGGGLVQAGGSLRLSCAASGGTFSIYPVGWFRQAPGKQREFVAAIGWSASGTYYGDSVEGRFTVSRDNARSTVYLRMSSLKPDDTAVYYCAAASGSNWRLGAIDEYDSWGQGTQVTVSS
notes: the alignment instead labels 'P35/P57' and 'P32/P56'; also called P56; not shown: Fc fragment
B12: P-0054 (Fc fusion)
chain: B4 chain
notes: also called P54; bivalent form of P29; not shown: Fc fragment
B13: P-0059 (Fc fusion)
chain: B5 chain
notes: also called P59; bivalent form of P12; not shown: Fc fragment
B14: P-0055 (Fc fusion)
chain: EVQLVESGGGLVRAGGSLRLSCAASGRTFTYDARAWFRQAPGKEREFVAAISWSGGSTYYPNSMKGRFTISRDNAKNTVYLQMNSLKPEDTAVYYCAADESFPAYYSDYALYRYWGQGTLVTVSS
notes: also called P55; bivalent form of P31; not shown: Fc fragment
B15: P10 (VHH)
VHH: B1 chain
notes: also called P10/P53; anti-CD117 VHH P10
B16: P38 (VHH)
VHH: B7 chain
notes: also called P38/P72; anti-CD117 VHH P38
B17: P27 (VHH)
VHH: B2 chain
notes: also called P27/P60; anti-CD117 VHH P27
B18: P32 (VHH)
VHH: B3 chain
notes: also called anti-CD117 VHH P32
B19: P35 (VHH)
VHH: B11 chain
notes: also called anti-CD117 VHH P35
B20: P31 (VHH)
VHH: B14 chain
notes: also called P31/P55; anti-CD117 VHH P31

What follows are binders tested against T1, human CD117 ectodomain (human, UniProt P10721 26-524, biotinylated (BirA co-expression) where captured on streptavidin biosensors) (assay: ELISA, human CD117, monovalent Fc fusion).
T1 construct: extracellular domain; also called cKIT; full length AviTagged CD117 ectodomain; not shown: C-terminal AviTag or His tag
T1 sequence (P10721 26-524): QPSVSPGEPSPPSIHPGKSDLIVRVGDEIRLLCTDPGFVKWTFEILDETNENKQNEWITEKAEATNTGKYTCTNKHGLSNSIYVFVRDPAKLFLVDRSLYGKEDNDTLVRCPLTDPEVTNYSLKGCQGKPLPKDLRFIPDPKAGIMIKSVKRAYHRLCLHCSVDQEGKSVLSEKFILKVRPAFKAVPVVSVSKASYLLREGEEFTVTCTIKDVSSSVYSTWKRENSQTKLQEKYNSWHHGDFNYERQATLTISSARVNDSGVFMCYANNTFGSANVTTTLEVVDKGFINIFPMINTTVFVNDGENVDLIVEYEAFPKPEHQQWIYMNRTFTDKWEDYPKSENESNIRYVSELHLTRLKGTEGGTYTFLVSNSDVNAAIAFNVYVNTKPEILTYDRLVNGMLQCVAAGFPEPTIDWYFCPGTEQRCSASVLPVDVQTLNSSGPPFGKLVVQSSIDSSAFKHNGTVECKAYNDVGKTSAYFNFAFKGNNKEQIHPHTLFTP

| Kd | Binder |
| --- | --- |
| 0.28 nM | B1 |
| 1.32 nM | B2 |
| 1.49 nM | B3 |
| 2.48 nM | B4 |
| 1.04 nM | B5 |

The binders below were run against T1, human CD117 ectodomain (assay: BLI (Octet), biotinylated ectodomain on SA biosensor, 1:1 global fit, bivalent Fc).
Source text: (§1) Pre-equilibrated streptavidin biosensors (SA, from Sartorius) were coated with biotinylated CD117 ectodomain by dipping the biosensors into wells containing an optimized dilution of human or cyno CD117 ectodomain. After re-equilibrating the biosensor tips in assay buffer, the biosensors were dipped into supernatant containing the VHH antibodies to allow association between the antibodies and the CD117 ectodomain. Finally, the biosensors were dipped into the assay buffer. The VHH antibodies disassociated from the CD117 ectodomain if association occurred. The association and dissociation of each VHH antibody was characterized qualitatively to identify VHHs that could bind both human and cyno CD117 ectodomains.
(§2) For example, kinetics parameters of the top VHH antibodies for binding to human CD117 and cynomolgus monkey CD117 ectodomain were obtained from the Octet® analysis by Biolayer Interferometry as described above. A minimum of three concentrations of purified VHH antibodies were tested per ectodomain target. The Octet® software was used to perform a global kinetic fit across all concentrations using a 1:1 binding model. This allowed determination of the kinetic parameters, association rate (kₒₙ), dissociation rate (koff) and equilibrium constant (KD) for the 9 antibodies of interest. Total chi-squared (X²) was also examined to determine the goodness of fit for the software's kinetic model.

| Kd | Binder |
| --- | --- |
| < 0.001 nM | B6 |
| 0.00126 nM | B7 |
| 0.24 nM | B8 |
| 0.00189 nM | B9 |
| 0.00215 nM | B10 |
| 0.602 nM | B11 |
| 0.00682 nM | B12 |
| 0.0446 nM | B13 |
| 0.00124 nM | B14 |

These binders were tested against T2, human CD117 on cells (SKMEL-3 cells, CD34+ HSC) (human, UniProt P10721 26-976) (assay: flow cytometry, skMEL-3 cells, monomeric Fc).
T2 construct: whole, on cells; also called CD117 on cell surfaces; CD117+ cells
T2 sequence (P10721 26-976): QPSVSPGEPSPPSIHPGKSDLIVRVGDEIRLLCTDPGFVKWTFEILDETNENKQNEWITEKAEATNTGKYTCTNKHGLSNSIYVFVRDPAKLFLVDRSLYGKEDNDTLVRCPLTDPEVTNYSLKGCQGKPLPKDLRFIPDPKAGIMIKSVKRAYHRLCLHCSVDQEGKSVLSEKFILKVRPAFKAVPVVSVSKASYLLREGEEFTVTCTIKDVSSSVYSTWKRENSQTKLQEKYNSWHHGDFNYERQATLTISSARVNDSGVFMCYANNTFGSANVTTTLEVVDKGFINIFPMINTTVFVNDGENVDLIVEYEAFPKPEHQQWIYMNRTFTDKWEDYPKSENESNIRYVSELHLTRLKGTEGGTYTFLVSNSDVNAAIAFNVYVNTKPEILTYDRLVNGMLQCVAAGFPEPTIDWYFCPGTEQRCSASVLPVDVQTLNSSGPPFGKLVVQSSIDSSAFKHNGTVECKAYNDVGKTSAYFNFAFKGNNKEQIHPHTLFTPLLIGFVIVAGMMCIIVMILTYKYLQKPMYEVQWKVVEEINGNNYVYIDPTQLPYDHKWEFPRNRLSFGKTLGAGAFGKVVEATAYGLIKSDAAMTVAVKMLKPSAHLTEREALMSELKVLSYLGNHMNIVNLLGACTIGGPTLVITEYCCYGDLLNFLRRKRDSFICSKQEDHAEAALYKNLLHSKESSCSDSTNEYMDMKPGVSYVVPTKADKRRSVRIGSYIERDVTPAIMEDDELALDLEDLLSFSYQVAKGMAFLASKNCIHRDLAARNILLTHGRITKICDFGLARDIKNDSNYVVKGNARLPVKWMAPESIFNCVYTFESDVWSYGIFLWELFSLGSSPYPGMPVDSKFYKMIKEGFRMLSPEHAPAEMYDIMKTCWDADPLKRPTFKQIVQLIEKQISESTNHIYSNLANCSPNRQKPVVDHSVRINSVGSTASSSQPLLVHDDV

| EC50 | Binder |
| --- | --- |
| 2 nM | B1 |
| 10 nM | B2 |
| > 50 nM | B4 |
| > 10 nM | B5 |

What follows are binders tested against T3, truncated CD117 ectodomain, Domain 1 (UniProt P10721 26-112, limits assumed, biotinylated) (assay: BLI, truncated ectodomain on SA biosensor).
T3 construct: domain: Domain 1; not shown: AviTag
T3 sequence (P10721 26-112 limits assumed): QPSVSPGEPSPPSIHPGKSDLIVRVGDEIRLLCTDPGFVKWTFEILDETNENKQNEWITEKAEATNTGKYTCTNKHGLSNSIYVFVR
Method: To identify the approximate binding epitopes of the VHH antibodies, truncated ectodomains were expressed as fusion polypeptides with an AviTag. Additionally, biotin is added to the protein during expression to allow capture of the material onto Streptavidin-coated (SA) biosensors. SA biosensors (Sartorius) were incubated with one of the truncated ectodomains. Full length CD117 ectodomain was used as a control. […] Except for P29 and P37, all others bind Domains 1-2 and Domains 1-3. Except for P37, all others bind Domains 1-4.

| binding result | Binder |
| --- | --- |
| no binding | B15 |
| no binding | B16 |
| no binding | B17 |
| no binding | B18 |
| no binding | B19 |
| no binding | B20 |

What follows are binders tested against T2, human CD117 on cells (SKMEL-3 cells, …) (assay: flow cytometry, CD34+ HSC, bivalent Fc).

| EC50 | Binder |
| --- | --- |
| 1 nM | B6 |
| 2 nM | B7 |
| 2 nM | B8 |
| 50 nM | B9 |
| 10 nM | B11 |
| > 50 nM | B12 |
| 50 nM | B13 |
| 1 nM | B14 |

What follows are binders tested against cynomolgus monkey CD117 ectodomain (cynomolgus monkey) (assay: BLI (Octet), biotinylated ectodomain on SA biosensor, 1:1 global fit, bivalent Fc).

| Kd | Binder |
| --- | --- |
| 0.00136 nM | B6 |
| 0.0112 nM | B7 |
| 2.16 nM | B8 |
| 0.00166 nM | B9 |
| 1.7 nM | B10 |
| 0.647 nM | B11 |
| 19.8 nM | B12 |
| 0.0112 nM | B13 |
| 0.961 nM | B14 |

What follows are binders tested against T2, human CD117 on cells (SKMEL-3 cells, …) (assay: flow cytometry, CD34+ HSC, monomeric Fc).

| EC50 | Binder |
| --- | --- |
| 2 nM | B1 |
| 10 nM | B2 |
| 50 nM | B4 |
| > 10 nM | B5 |

The binders below were run against T1, human CD117 ectodomain (assay: ELISA, human CD117, bivalent Fc fusion).

| Kd | Binder |
| --- | --- |
| 0.16 nM | B6 |
| 0.21 nM | B7 |
| 0.14 nM | B8 |
| 0.33 nM | B9 |
| 0.21 nM | B10 |
| 0.36 nM | B11 |
| 0.54 nM | B12 |
| 0.06 nM | B13 |
| 0.22 nM | B14 |

Each binder was assayed against T1, human CD117 ectodomain (assay: BLI (Octet), biotinylated ectodomain on SA biosensor, 1:1 global fit, monomeric Fc).
Source text: as §1, §2

| Kd | Binder |
| --- | --- |
| 16.5 nM | B1 |
| 44.7 nM | B2 |
| 1.86 nM | B3 |
| 37.4 nM | B4 |
| 49.2 nM | B5 |

What follows are binders tested against T2, human CD117 on cells (SKMEL-3 cells, …) (assay: flow cytometry, skMEL-3 cells, bivalent Fc).

| EC50 | Binder |
| --- | --- |
| 1 nM | B6 |
| 1 nM | B7 |
| 2 nM | B8 |
| 3 nM | B9 |
| 3 nM | B11 |
| > 50 nM | B12 |
| 50 nM | B13 |
| 1 nM | B14 |

Each binder was assayed against cynomolgus monkey CD117 ectodomain (cynomolgus monkey) (assay: BLI (Octet), biotinylated ectodomain on SA biosensor, 1:1 global fit, monomeric Fc).

| Kd | Binder |
| --- | --- |
| 54.9 nM | B1 |
| 8.11 nM | B2 |
| 8.01 nM | B3 |
